Data taken from a protein production outcome set (Wang et al. 2014).

Assay: label from the status in PepcDB records
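Note: failed if final PepcDB status was selected cloned or expressed and not failed if soluble or beyond.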

Sequence	protein production
MQDSRPHPHDWNVSTDEAKRIQRRLASEVTERALPDGGETVAGIDVSVRDDTAQAAVSVLRLPELDVVDEATHRCEVPFPYVPGLLSFREMPAVLPALERLHSTPDVFVTDSHGAAHPRRFGLACHLGVLLDAPAIGVAKSILVGAPQGELGPEKGSRVPLVDDGETVGTVLRTRTDVNPVYVSVGHRCTLDGAADLMLDCSPRYKIPEPTRQAHKLSRAEG	failed
MAEILRAENIKKVIRGYEILKGISLSVKKGEFVSIIGASGSGKSTLLYILGLLDAPTEGKVFLEGKEVDYTNEKELSLLRNRKLGFVFQFHYLIPELTALENVIVPMLKMGKPKKEAKERGEYLLSELGLGDKLSRKPYELSGGEQQRVAIARALANEPILLFADEPTGNLDSANTKRVMDIFLKINEGGTSIVMVTHERELAELTHRTLEMKDGKVVGEITRV	not failed
MAEARRDGRLPLTLVGGFLGAGKSTWLRHQLHAGRFARHHLLVNEAAETPVDNLLLGGAARLTLLAGGCACCEGQAQLRAALRAICETESGPEAGGIEGILLETSGLADPGAIAAMVAADPVLVRRLALAETLVLVDAAHGTAQLAAEPLARAQIEAAGRLVLTKPAAAPDLARLAATLRALAPEAELSAAERGVPVPLPAGAAEPYPLPPLAAAAPIRPHRLRIGAEGGWVALSTWLSALLQARGEDVVRVKGVVRTPAGRLLLQSVRRMVQPPETLPEGADLPGPAPPPRRERSC	failed
MTSDIKAILEQVVISPDVPIAEAIAQLDRAGTGSLVVCSADKKLYGLLTDGDVRRALLKAVDMGAPCGDIANRKPVITFVPLLPIEALRLMNHHDINHLPVLDAEGRVVDFLLRRDLVAEDELAARARRRLDSVVIPCSASIAEAIAQLDRAGTGALVLCSEGDRLHGLLTDGDIRRAVLRGISLDAPCQDVASRRPVTVEPSFSAAQALHLMNQHDINHLPVVDDTGRVVDFLLRRDLIADDQLNLSAVVMAGGYGKRLLPLTEQVPKPMLPVGDRPLLERTIDQLRRSGIREVNLTTHYLPDSIVEHFGDGDSFGVKLNYLKEDHPLGTAGGLKLMKKASDPFLVMNGDILTGVPFQEMFAYHRKNGAEITVGVRKYEVQVPFGVVECDDVRITGLKEKPSLTFFINAGIYLLEPSVCDLIPEGERFDMTDLIQKLLDEGRSVVSFPIMEYWLDVGRHEDYQKAQEDVRSGKIQLEHHHHHH	failed
MHDIILMPCPEVSIIILTRNGKATIGECLKQVYAQNYTNFEVIVIDSASTDGTPDIVNNFPVRFFSIDVKDFGHGKTRNYGAKLSKGKYLAYLTQDASPFNEHWLENLIRNFSDEEVAGVYSRNVPRSDCDPFEARYISSGWGSDREVKSMQNCRNYKKLVFFSNTSSCIRKDTWEKFPFNELLVQTEDQDWSKRVLEAGYKIVYDPGSVVVHSHNNSLKILFKKYFDAGTAHIQIFKNRNNVYLPLIPFFSVISTFLDIRFMFFNNYETINIIKWVPRAVVRHFVEATAFWLGLHFDILPQALKRKFTASGHY	failed
MLTPLQIYFPIGVVLLVAVVLAFTMLGLANVLGPRRPSLVKQTPFECGSEPIGSARERFGVKFYVVALLFIVFDIEAIFLYPWAVLLLPDGQGYPGLGWPGFISMGIFVFTLVAGLVYVWKKGVLDWAD	failed
MGVVFAFGFYLIFIKLTGLKLMDYFPRFKENRLKMIFSILSVILAFLINWLIMKNFSFLIEIIHPIASVWIFIILIYLLLRFLFLKRVPLSNYEKKFMGNMSAIAIFLELLKIIEYVDEHNIASPITVALVFFIPVVVFFNCKYFYEMELSS	failed
MRHFDASQPLRVAVLGTGFGSKVHIPALQHHSETTVQAVYHRQPDRAAAIAVQFGIPNAYSDLDQLLADPAIEAVTIASPPFLHYPMAWAALSAGKSVLLEKPTTLNVEEARALWKLASSQGLTVTLDFEYRFVPAWQYVAELLAEGVIGQPWLVKLDWLMSSRADASRPWNWYALRSQGGGALGALGSHSFDYLAWLFGPARRLQARLFTAIQERPDATTGELKPVDSDDTDLIQLELAEGVPCQISLSSVFRQGRGHWLEVYGDRGTLILGSSNQKDYVHGFQVWFASAGQALQELTVPQRLAFRQEFADGRLAPFLRVVDHWLADLRHGQMTAPSLKEGLYSQLLIDLCWQSQRSGEWQTVPELNRFLLEHHHHHH	failed
MSIPNGGSHQSLEALLAAYDFRLRHEPRNCTLWNNRGILLERLNRWTEALASYNCALEITPQRQEALNNRAIVLEHLGRLPEAVESYEQALAIDRQQPEVWNNRGIVLRKLGRLEDAIASYQQAIALAAHYAQAWANCGFALWQQGRYREAVRHYEQSVAIDPDQSSAWRQLGQIYLSVDQPDQALRCLDQAIALQPQQATAWTWRGHALYNLGQYAAALTSYENAELLGDRPLLLSIQRGHTLAQLERYEEALASYAAILPQLTGEAAAEVAYYQGLVWAYLQDWTAALAAFDQAIAGNPDLAEAWYNRAALHARLDQPVAAIADLQQAIALDPDTYRSLAAEDPDYQTLHAHPDWIQLQRA	failed
MSDSLFLSLAKFDVILSGSTNSNILHDVMGQVIDRSEIQDLNANNKPTKKIDFHLRDQHDTRLACILWGKYAEIVDKACQESTDGIVVCLIRFAKINLYNDTRSVSNFFDVSQVFVDPTLAELDLFKQSIP	failed
MTVKHLAIAPEGKKSLRLSWTNVAFFTTIHALALLAPWFFSWSALGLLLFLHWLFGSIGICLGYHRLLSHKSFQVPKWLEYAIATIGALAMQGGPIFWIGGHRQHHAHTEDVYLDPYSSQRGFWWSHMLWILYPRSEFFDYEIYQKYAPDLARQPFYRWLDRYFLLLQIPFGLMLYAIGGWSFVIYGVVLRAVLLWHSTWFVNSATHMWGYRTFNADDNARNLWWVSIVTYGEGWHNNHHTYPNVAKAGFQWWEVDVTWWSIKLLQTLGLAKKVVLPPSQRMNQG	failed
MRKRIFWLLPDLASARRTMDDLLLARIENSHIHFVGRDGADMTGLHEANLFQTSDIVHAAEMGLMVGGGVGIVAGVVVAMFPIVSDSPQWGLVGVLAVLGAVFGAWAASMIGSSAPNSRLRSFEKDIEAGKLLLMVDVPRGRVEEVEALLQKAHPEASFAGLDPAVPAFP	failed
MKRIFKGHSPWGFLSFRHAENQEPPRYLTGYTPVKRIHKAASMGDIPQVQKLLEFGNIDVNITDRKKRTALHYACAHGQSEMVSLLLWYDCNIEARDREESTALIKATQRQHEICVKILLENGADPNAVDAYHITALHYAVYNNDTAIAAKLLSFNANTEIKTKNGYTPLILAVLENKQEMVELLLRAAANINALDNCKRSALIHAVRIQSKNMISLLLQQGADPSLVDIYGATAQSYAVFETFQVLSQSPGPSCPELTTKEDKQSFDTKDGCIPHSHHIKEDNQEMEENTDDKLGSPAALKHKEKELENCEECNSEADTYPESYSKTSSAQRRSNSEPTEVDDEPSFSTKPPVAQSPMFTESSLWVGYPADWPEPVKFSRQPAVYNPTEWREDMESRSVPREESKQQVAIFPEGKEADVQTQELLSRVFKESGDNDPNLPAIENTKDELVSLLAPLEENKPQMTEFPLIEAAKFQTDVQLDRCPCFLLSLRNSLSGTLD	failed
MHVNPLISVARSKASALFAALALVLVVTLTLAGCSSDKSGETTAEAKKDPSSIRVVALDWRYEEILHALGITPVGIVEIGKSKEPQTLKGELEGVTSVGQAKQPNLEVIQSLEPDLILASPTRQAAIMDQLKEIAPTHAYGDTSYTEVLDAMDDIATKVGAEDKAKEVRTRIESKIAQAKNKVEPGTRTALIGWSKNTLYTWVKDSFAGSLLTAAGYEYGYDGEKSAIESKTDVAELTGDKLPEMKLDVMYLYNDIEGFRSSPYADVVSNIVDVEQDTWSRSRGPLAAEAMLDQIINS	failed
MTLTIPNAPGSSGYLDMFPERRMSYFGNSYILGLTVTAGIGGLLFGYDTGVISGALLYIKDDFEVVKQSSFLQVYNVSSFTSSKLETIVSMALVGAMIGAAAGGWINDYYGRKKATLFADVVFAAGAIVMAAAPDPYVLISGRLLVGLGVGVASVTAPVYIAEASPSEVRGGLVSTNVLMITGGQFLSYLVNSAFTQVPGTWRWMLGVSGVPAVIQFILMLFMPESPRWLFMKNRKAEAIQVLARTYDISRLEDEIDHLSAAEEEEKQRKRTVGYLDVFRSKELRLAFLAGAGLQAFQQFTGINTVMYYSPTIVQMAGFHSNQLALFLSLIVAAMNAAGTVVGIYFIDHCGRKKLALSSLFGVIISLLILSVSFFKQSETSSDGGLYGWLAVLGLALYIVFFAPGMGPVPWTVNSEIYPQQYRGICGGMSATVNWISNLIVAQTFLTIAEAAGTGMTFLILAGIAVLAVIFVIVFVPETQGLTFSEVEQIWKERAYGNISGWGSSSDSNNMEGLLEQGSQS	not failed
MYLKELSMMPGVSGDEGKVRDFIKSKIEGLVDNLYTDVLGNLIALKRGRDSSKKLLVSAHMDEVGFVVSKIEKDGKVSFLPVGGVDPRILPGKVVQVKNLKGVIGYRPIHLQRDEENTPPRFENLRIDFGFSSADEAKKYVSIGDYVSFVSDYIEKNGRAVGKAFDDRAGCSVLIDVLESGVSPAYDTYFVFTVQEETGLRGSAVVVEQLKPTCAIVVETTTAGDNPELEERKWATHLGDGPAITFYHRGYVIPKEIFQTIVDTAKNNDIPFQMKRRTAGGTDAGRYARTAYGVPAGVISTPARYIHSPNSIIDLNDYENTKKLIKVLVEEGKIVEVVS	not failed
MQPLVSTVLVPSQGIPLCCNEICLKSLQKEVAMPLKDLLIALVVIVAWGVNFVVIKVGLDGLPPMLLGALRFLLVAFPAILLVRRPKLPWRWLIAYGATISLGQFAFLFQAMYSGMPPGLASLILQSQAFFTLGFAALFLGERLRLASVLGLLVAAGGLALIGSEDGGHVPMLALVLTLCGGAMWGLGNIITRRFGSVDLVALVIWGGLIPPLPFLALSWWLEGPERIGHALANISWSSVLALAYLAFVATMLGYSLWSKLLSRHPAGKVAPFSLLVPVIGLSSSALLLGERLTATQGWGALLVMAGLLVNVFGARIGQRLRAANA	failed
MQFFGGSEISPSPPVPTASGNNAHMMYVFNRNGVCLLYKEWNRPLHTLNPQQDHKLMFGLLFSLKSLTAKMDPVNADKGNLGVPQLPGQGCSFHSFRTNTYKLSFMETPSGIKIILVTHPKTGDLRESLKYIYSLYVEYVVKNPIYSPGSPIKSELFNTALDQYVRSIS	failed
MSGMAKYMEIYIDIRDKINQNKYEINEKLPDGDSMARTYDCSKLTVKKALDMLVQEGMIIRRRGAGTFVKSHSTNGGEFALGPMSGLVNTFGKDNIKSKVILFSIEKPSKEVAEKLEMQDDYIYRIIRMREVGHKAYSIEHTYMPLAIIPGLEPHHLEDSIYNYIRDDLKLKMQSAHVWVRGDKSNQEDSKLLDLEEPTFMMEIEKLAHLEDGRVFEYSITRHTYESFVFETVFVQN	failed
MATEKYHEILKKYFLSFETGDFSQVQFSCNLEFLSPISGNTLKGTEEVIPFLKGVTTRVAEVNIMSTTVEYPRASGVWQMRTTKGTLYTLHNFFRLDEEGIVYVWPMFDPKAVMENPDALIQWLTGKDY	not failed
MLNRGGFTYPGQRWKHCINTLLTGGVLLIVSASAYADSNALGYKIPGYELVYDAPMETTLTTPDLRPSDAVWISLFDNAQHTIELGQFYVANQAGTRLDSVLQHLRAAGERGVRIRLLLEEKGLKISTQDTLDQLKTIPNLELRVIPFERLSGGILHAKYLLVDGKQAYMGSQNLDWRALEHIHETGLLIDDPRVVNQISTIFEQDWQAQARLSNGETVPPLPASTDAVDRSGNYLVASPKAFNPAGVMDSEEELPRLLAEAQQQVRIQVMDYVPLSYGPDKTRPFYAVIDNAIRTAAARGVQVELMVSEWSTKMPNIAYLKSLALLPNIQIKTVSIPQVSSGFIPFARVIHSKIMTIDGTKTWIGTSNWSGGYLDNSRNLEMVIQNPAMAQRVDLLYTQLWNSAYAHPLRIDYDYPQPNPGGVKEKEQENTASSTTGGTVTAP	failed
EPAPRGFLLIGANRVAREIGQALARYDRRVLMTDSNWEYISQVRMMGLDYYYGNPISSHADDNLNMIGIGQVVALTPDQHFNIMACMQF	failed
